Consider one substance from PMC6987189, “Native aggregation is a common feature among triosephosphate isomerases of different species” (Scientific Reports, 2020).

The test system of this data set is O=C[C@H](O)COP(=O)(O)O. The data set can be described thus: purified protein. The following applies: GAP to DHAP direction, 25 °C, 100 mM TEA, 10 mM EDTA, 0.2 mM NADH, GAP 0.3 to 3 mM. Type of data set: biochemical, Giardia duodenalis.

In general, Km refers to the substrate concentration at which the rate is half of its maximum. Broadly, the kcat is the maximal rate divided by the concentration of active sites. What is called kcat/Km is the second-order rate constant that governs catalysis at low substrate concentration. As to GlTIM (Giardia duodenalis; C202A), the Michaelis-Menten constant (Km) came out at 100 ± 10 µM, the turnover number (kcat) amounted to 3280 ± 103 s⁻¹ and the kcat/Km amounted to 2.9e+07 M⁻¹ s⁻¹.
